Numbered stars: 1 amine (or outer) side, 2 acyl side, 3 side chain; on linkers, the order of the positions; unused ones are H or OH. Bridge positions count the residues as written; N and C are the ends. Side chains are listed from the residue outwards. Ends that are not written are not given here. * marks the point of attachment. C20 diacid = O=C(O)CCCCCCCCCCCCCCCCCCC(=O)*; γGlu = O=C(O)[C@H](CCC(=O)[*:2])N[*:1]

To fix the notation:
T1: human calcitonin receptor (human, UniProt P30988 25-474)
T1 sequence (looked up): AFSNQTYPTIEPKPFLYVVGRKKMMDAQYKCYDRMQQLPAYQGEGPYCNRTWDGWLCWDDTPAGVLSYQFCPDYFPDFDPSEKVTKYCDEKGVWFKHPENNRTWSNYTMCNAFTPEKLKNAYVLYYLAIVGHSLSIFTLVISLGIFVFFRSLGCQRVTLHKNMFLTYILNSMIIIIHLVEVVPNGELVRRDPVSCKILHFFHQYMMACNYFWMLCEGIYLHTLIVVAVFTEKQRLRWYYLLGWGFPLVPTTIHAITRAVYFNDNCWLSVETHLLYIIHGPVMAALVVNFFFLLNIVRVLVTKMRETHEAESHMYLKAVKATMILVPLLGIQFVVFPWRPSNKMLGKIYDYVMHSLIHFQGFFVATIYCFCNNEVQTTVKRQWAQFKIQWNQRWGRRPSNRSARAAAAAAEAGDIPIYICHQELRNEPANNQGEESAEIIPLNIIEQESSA

T2: human amylin receptor (amylin 3(a) receptor: human calcitonin receptor with RAMP-3) (human, UniProt P30988 25-474; O60896 24-148)
T2 sequence (looked up) 1: T1 sequence (looked up)
T2 sequence (looked up) 2: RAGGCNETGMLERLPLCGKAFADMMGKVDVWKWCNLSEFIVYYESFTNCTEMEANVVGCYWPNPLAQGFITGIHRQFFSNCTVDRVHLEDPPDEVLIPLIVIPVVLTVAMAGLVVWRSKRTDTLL

B1: N^ε1-[(4S)-4-carboxy-4-(19-carboxynonadecanoylamino)butanoyl]-[Arg17,Pro21,Pro27,Lys35]-h-amylin (peptide)
peptide: K([γGlu-C20 diacid])CNTATCATQRLANFLRHSSPNFGAIPSSTNVGSKTY-NH2
modifications: disulfide 2-7; N-terminus assumed
SMILES: CC[C@H](C)[C@H](NC(=O)[C@H](C)NC(=O)CNC(=O)[C@H](Cc1ccccc1)NC(=O)[C@H](CC(N)=O)NC(=O)[C@@H]1CCCN1C(=O)[C@H](CO)NC(=O)[C@H](CO)NC(=O)[C@H](Cc1c[nH]cn1)NC(=O)[C@H](CCCNC(=N)N)NC(=O)[C@H](CC(C)C)NC(=O)[C@H](Cc1ccccc1)NC(=O)[C@H](CC(N)=O)NC(=O)[C@H](C)NC(=O)[C@H](CC(C)C)NC(=O)[C@H](CCCNC(=N)N)NC(=O)[C@H](CCC(N)=O)NC(=O)[C@@H](NC(=O)[C@H](C)NC(=O)[C@@H]1CSSC[C@H](NC(=O)[C@@H](N)CCCCNC(=O)CC[C@H](NC(=O)CCCCCCCCCCCCCCCCCCC(=O)O)C(=O)O)C(=O)N[C@@H](CC(N)=O)C(=O)N[C@@H]([C@@H](C)O)C(=O)N[C@@H](C)C(=O)N[C@@H]([C@@H](C)O)C(=O)N1)[C@@H](C)O)C(=O)N1CCC[C@H]1C(=O)N[C@@H](CO)C(=O)N[C@@H](CO)C(=O)N[C@H](C(=O)N[C@@H](CC(N)=O)C(=O)N[C@H](C(=O)NCC(=O)N[C@@H](CO)C(=O)N[C@@H](CCCCN)C(=O)N[C@H](C(=O)N[C@@H](Cc1ccc(O)cc1)C(N)=O)[C@@H](C)O)C(C)C)[C@@H](C)O
notes: also called compound 35
B2: N^ε1-[(4S)-4-carboxy-4-[[(4S)-4-carboxy-4-(19-carboxynonadecanoylamino)butanoyl]amino]butanoyl]-[Asp14,Arg17,Pro21,Pro27,Asp35]-h-amylin (peptide)
peptide: K([γGlu-γGlu-C20 diacid])CNTATCATQRLADFLRHSSPNFGAIPSSTNVGSDTY-NH2
modifications: disulfide 2-7; N-terminus assumed
SMILES: CC[C@H](C)[C@H](NC(=O)[C@H](C)NC(=O)CNC(=O)[C@H](Cc1ccccc1)NC(=O)[C@H](CC(N)=O)NC(=O)[C@@H]1CCCN1C(=O)[C@H](CO)NC(=O)[C@H](CO)NC(=O)[C@H](Cc1c[nH]cn1)NC(=O)[C@H](CCCNC(=N)N)NC(=O)[C@H](CC(C)C)NC(=O)[C@H](Cc1ccccc1)NC(=O)[C@H](CC(=O)O)NC(=O)[C@H](C)NC(=O)[C@H](CC(C)C)NC(=O)[C@H](CCCNC(=N)N)NC(=O)[C@H](CCC(N)=O)NC(=O)[C@@H](NC(=O)[C@H](C)NC(=O)[C@@H]1CSSC[C@H](NC(=O)[C@@H](N)CCCCNC(=O)CC[C@H](NC(=O)CC[C@H](NC(=O)CCCCCCCCCCCCCCCCCCC(=O)O)C(=O)O)C(=O)O)C(=O)N[C@@H](CC(N)=O)C(=O)N[C@@H]([C@@H](C)O)C(=O)N[C@@H](C)C(=O)N[C@@H]([C@@H](C)O)C(=O)N1)[C@@H](C)O)C(=O)N1CCC[C@H]1C(=O)N[C@@H](CO)C(=O)N[C@@H](CO)C(=O)N[C@H](C(=O)N[C@@H](CC(N)=O)C(=O)N[C@H](C(=O)NCC(=O)N[C@@H](CO)C(=O)N[C@@H](CC(=O)O)C(=O)N[C@H](C(=O)N[C@@H](Cc1ccc(O)cc1)C(N)=O)[C@@H](C)O)C(C)C)[C@@H](C)O
notes: also called compound 2
B3: N^ε1-[(4S)-4-carboxy-4-[[(4S)-4-carboxy-4-(19-carboxynonadecanoylamino)butanoyl]amino]butanoyl]-[Glu14,Arg17,Pro21,Pro27,Pro37]-h-amylin (peptide)
peptide: K([γGlu-γGlu-C20 diacid])CNTATCATQRLAEFLRHSSPNFGAIPSSTNVGSNTP-NH2
modifications: disulfide 2-7; N-terminus assumed
SMILES: CC[C@H](C)[C@H](NC(=O)[C@H](C)NC(=O)CNC(=O)[C@H](Cc1ccccc1)NC(=O)[C@H](CC(N)=O)NC(=O)[C@@H]1CCCN1C(=O)[C@H](CO)NC(=O)[C@H](CO)NC(=O)[C@H](Cc1c[nH]cn1)NC(=O)[C@H](CCCNC(=N)N)NC(=O)[C@H](CC(C)C)NC(=O)[C@H](Cc1ccccc1)NC(=O)[C@H](CCC(=O)O)NC(=O)[C@H](C)NC(=O)[C@H](CC(C)C)NC(=O)[C@H](CCCNC(=N)N)NC(=O)[C@H](CCC(N)=O)NC(=O)[C@@H](NC(=O)[C@H](C)NC(=O)[C@@H]1CSSC[C@H](NC(=O)[C@@H](N)CCCCNC(=O)CC[C@H](NC(=O)CC[C@H](NC(=O)CCCCCCCCCCCCCCCCCCC(=O)O)C(=O)O)C(=O)O)C(=O)N[C@@H](CC(N)=O)C(=O)N[C@@H]([C@@H](C)O)C(=O)N[C@@H](C)C(=O)N[C@@H]([C@@H](C)O)C(=O)N1)[C@@H](C)O)C(=O)N1CCC[C@H]1C(=O)N[C@@H](CO)C(=O)N[C@@H](CO)C(=O)N[C@H](C(=O)N[C@@H](CC(N)=O)C(=O)N[C@H](C(=O)NCC(=O)N[C@@H](CO)C(=O)N[C@@H](CC(N)=O)C(=O)N[C@H](C(=O)N1CCC[C@H]1C(N)=O)[C@@H](C)O)C(C)C)[C@@H](C)O
notes: also called compound 13
B4: N^ε1-[(4S)--4-carboxy-4-(19-carboxynonadecanoylamino)butanoyl]-[Glu14,Arg17,Pro21,Pro27,Pro37]-h-amylin (peptide)
peptide: K([γGlu-C20 diacid])CNTATCATQRLAEFLRHSSPNFGAIPSSTNVGSNTP-NH2
modifications: disulfide 2-7; N-terminus assumed
SMILES: CC[C@H](C)[C@H](NC(=O)[C@H](C)NC(=O)CNC(=O)[C@H](Cc1ccccc1)NC(=O)[C@H](CC(N)=O)NC(=O)[C@@H]1CCCN1C(=O)[C@H](CO)NC(=O)[C@H](CO)NC(=O)[C@H](Cc1c[nH]cn1)NC(=O)[C@H](CCCNC(=N)N)NC(=O)[C@H](CC(C)C)NC(=O)[C@H](Cc1ccccc1)NC(=O)[C@H](CCC(=O)O)NC(=O)[C@H](C)NC(=O)[C@H](CC(C)C)NC(=O)[C@H](CCCNC(=N)N)NC(=O)[C@H](CCC(N)=O)NC(=O)[C@@H](NC(=O)[C@H](C)NC(=O)[C@@H]1CSSC[C@H](NC(=O)[C@@H](N)CCCCNC(=O)CC[C@H](NC(=O)CCCCCCCCCCCCCCCCCCC(=O)O)C(=O)O)C(=O)N[C@@H](CC(N)=O)C(=O)N[C@@H]([C@@H](C)O)C(=O)N[C@@H](C)C(=O)N[C@@H]([C@@H](C)O)C(=O)N1)[C@@H](C)O)C(=O)N1CCC[C@H]1C(=O)N[C@@H](CO)C(=O)N[C@@H](CO)C(=O)N[C@H](C(=O)N[C@@H](CC(N)=O)C(=O)N[C@H](C(=O)NCC(=O)N[C@@H](CO)C(=O)N[C@@H](CC(N)=O)C(=O)N[C@H](C(=O)N1CCC[C@H]1C(N)=O)[C@@H](C)O)C(C)C)[C@@H](C)O
notes: also called compound 12

In the first assay the target is T1, human calcitonin receptor. The assay can be described thus: cell-based or functional assay.
B1: the “Ratio hCT/hAmylin funct.” value amounted to 15 and the “hCTR funct. EC50” value is 5.46 nM.

With B2, the “Ratio hCT/hAmylin funct.” value was determined as 16.4 and the “hCTR funct. EC50” value was 3 nM.

For B3, the “Ratio hCT/hAmylin funct.” value turned out to be 2.2 and the “hCTR funct. EC50” value turned out to be 0.47 nM.

Regarding B4, the “Ratio hCT/hAmylin funct.” value was 1.8 and the “hCTR funct. EC50” value is 0.185 nM.

The target in a further assay is T2, human amylin receptor (amylin 3(a) …). Briefly: cell-based or functional assay.
As for B1, the “hAmylin-R funct. EC50” value worked out at 0.364 nM.

Take B2: the “hAmylin-R funct. EC50” value was 0.182 nM.

On to B3, for which the “hAmylin-R funct. EC50” value is 0.213 nM.

Consider B4, for which the “hAmylin-R funct. EC50” value was 0.101 nM.

Source of the values: patent US20140087995A1 (published 2014).
